{"source": "paper PMC8213154", "about": "“Replacement of Arg in the conserved N-terminal RLFDQxFG motif affects physico-chemical properties and chaperone-like activity of human small heat shock protein HspB8 (Hsp22)” (PLoS ONE, 2021)", "proteins": {"B1": {"name": "HspB8 Δ28–32 mutant (natural protein, human, UniProt Q9UJY1 1-196, looked up)", "chain": "MADGQMPFSCHYPSRLRRDPFRDSPLSDGFGMDPFPDDLTASWPDWALPRLSSAWPGTLRSGMVPRGPTATARFGVPAEGRTPPPFPGEPWKVCVNVHSFKPEELMVKTKDGYVEVSGKHEEKQQEGGIVSKNFTKKIQLPAEVDPVTVFASLSPEGLLIIEAPQVPPYSTFGESSFNNELPQDSQEVTCT", "notes": "human HspB8 (Hsp22), Uniprot Q9UJY1, with the pentapeptide 28SRLLD32 deleted; calculated Mw of monomer 21.0 kDa; Made by PCR from the HspB8 WT cDNA and ligated into pET23 via NdeI and XhoI; No tag is named; also called Δ mutant; deletion mutant of HspB8"}, "B2": {"name": "HspB8 R29A mutant (natural protein, human, UniProt Q9UJY1 1-196, looked up)", "chain": "MADGQMPFSCHYPSRLRRDPFRDSPLSSALLDDGFGMDPFPDDLTASWPDWALPRLSSAWPGTLRSGMVPRGPTATARFGVPAEGRTPPPFPGEPWKVCVNVHSFKPEELMVKTKDGYVEVSGKHEEKQQEGGIVSKNFTKKIQLPAEVDPVTVFASLSPEGLLIIEAPQVPPYSTFGESSFNNELPQDSQEVTCT", "notes": "human HspB8 (Hsp22), Uniprot Q9UJY1, carrying the R29A mutation; calculated Mw of monomer 21.5 kDa; No tag is named"}, "B3": {"name": "oxidized Cys mutant of HspB8 (C10S/C99S/C195S/N138C) (natural protein, human, UniProt Q9UJY1 1-196, looked up)", "chain": "B2 chain with C10S, A29R, C99S, N138C, C195S", "modifications": "engineered disulfide bridge between the Cys138 residues of two chains (oxidized form)", "notes": "human HspB8 (Hsp22), Uniprot Q9UJY1, with the C10S/C99S/C195S/N138C amino acid substitutions; calculated Mw of monomer 21.5 kDa; The dimer is covalent (S-S crosslinked) after oxidation; No tag is named; also called HspB8Cys; oxidized HspB8Cys; source: oxidized by overnight dialysis"}}, "key": {"[1]": {"molecular_target": "the molecule itself", "assay": "SEC-MALS; Superdex 200 Increase 10/30; 20 mM Tris/acetate pH 7.6, 150 mM NaCl, 0.1 mM EDTA, 0.1 mM PMSF, 2 mM DTT; 200–250 μg of HspB8 WT or R29A, or 400 μg of Δ28–32 loaded"}, "[2]": {"molecular_target": "the molecule itself", "assay": "SEC-MALS; Superdex 200 Increase 10/30; buffer D (20 mM Tris/acetate pH 7.6, 150 mM NaCl, 0.1 mM EDTA, 0.1 mM PMSF) without any reducing agents; 200–250 μg of oxidized HspB8Cys loaded"}}, "note": "Where a chain is given by its changes, count along the chain named. In names and notes the source's numbering stands."}
{"protein": "B1", "values": [{"measurement": "stoichiometry N", "setting": "[1]", "result": 2}]}
{"protein": "B2", "values": [{"measurement": "binding result", "setting": "[1]", "result": "binds"}]}
{"protein": "B3", "values": [{"measurement": "stoichiometry N", "setting": "[2]", "result": 2}]}
